These results are taken from the supplement of paper PMC12636428.

The subject of the series is Saccharomyces cerevisiae. Description: transcriptional activation domain activity (GFP:mCherry ratio, weighted mean of sorted bins, harmonized to initial dataset scale) (arbitrary fluorescence ratio units); higher = stronger transcriptional activation. Conditions: beta-estradiol 1 µM; induction time 4 h. The procedure, abridged:
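After a 1:5 dilution into SC with 1 uM beta-estradiol and 4 hours at 30 °C, yeast diploids carrying a GFP reporter and URA3-integrated barcoded tiles were sorted into 8 bins by GFP:mCherry ratio. The tiles were fused to an estradiol-inducible synthetic transcription factor. Barcodes were sequenced, tiles below 50 reads were discarded, and activation activity was taken as the read-weighted mean of bin median fluorescence, averaged across barcodes and linearly mapped onto the initial dataset scale.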

As for “AFIHRLHEVYIVAWCMKNVHFMYLHPGVPFYVLCDCTRGDTIMTVHACAEPPP”, the “transcriptional activation domain activity” value was 63000.
As to “AMKDIEIVKDEETGAPIVRLRGEAAAAAKKAGVQDITLSISHSDNQAIAVAVA”, the “transcriptional activation domain activity” value is 58900.
“FSFGLYLLYHSPYWMNVAQLWVNYPHIEFMPGIKKYYLIQMSYWLQQMYFIQI”: the “transcriptional activation domain activity” value was found to be 48700.
For the sequence “SRITSIGVWYLLIQMIWYILFGILYIWFFCQTWESFTVLLVVDYSLRIILCLM”, the “transcriptional activation domain activity” value amounted to 58100.
For the sequence “QLEGDADLFLVPNFYVLRRISHLATTTLLRQLEAFSIRTPVFGVLLWKSLVAI”, the “transcriptional activation domain activity” value turned out to be 49100.
Take “MVKSFALGGLILLFSFLLLLLLLSLLLLFISSLLSLSLIPFFLFDSLSIARFS”: the “transcriptional activation domain activity” value turned out to be 64400.
“MSPLDQVAEDDLSKRRKPHTKSRHGCIDCRRRRVKCGEEKPCCRTCVRRGVRC”: the “transcriptional activation domain activity” value was 44400.
Regarding “DMKDRGLFQCNPYRYAKECCRFVGLFYTAIWLVLRGTHIGHYVISATCLAVLW”, the “transcriptional activation domain activity” value was found to be 68200.
To “ASEPVKEETKPPVEEHASEPVEEETKPVEEEIKPVEEHASEPVKEETKPAEEH” belongs below 6570.
In the case of “MDDTDSSAAGGARWIVVSTGGRAQSPEDEAGLRRVKGACRARQNKSKNAILIH” it was 47100.
For the sequence “VVNLLQSLHFGGLLNHKKRHYFWIIFGAIFFWEWIPQFPFPLLTAFSVICLVD”, the “transcriptional activation domain activity” value is 47400.
As for “TGLDGTAYVMFWTINVNVLMLLSQWILEERVRSRALQFCFRYYYFMVYFIFYR”, the “transcriptional activation domain activity” value was 55300.
In the case of “EAEQEVQQKPAKGKKALAAAKSSAEDAEPEAAPAPKKSALKDGEASAAAPAPS”, the “transcriptional activation domain activity” value is 21800.
Take “HHDNVNPTIPPPDNYILNNENDDGLDNLLGMDYYNIDDLLTQELRDLDIPLVP”: the “transcriptional activation domain activity” value came to 140000.
As for “GWNTHRAQTYTQLAKHLQSHGFHCKQYLGWLCHNIVAIEVYWMMIHLKRILPL”, the “transcriptional activation domain activity” value worked out at 56300.
In the case of “SSSEDESDEEDEEGLGSDVEIHDQAEPAEDVPAGEVSRRFAVVNLDWDHVRAV”, the “transcriptional activation domain activity” value stood at 32200.
In the case of “MCSILPTVCNQYLIFLSFVSCPSMLYLISYFFLMWSFFSLHNWFFCWVPCCVL”, the “transcriptional activation domain activity” value was found to be 52700.
To “EETKAEEPKATEAATTSTAPAAATEATTAATAETTTEEAKPATNGSTAAADAA” belongs 23200; to “MGVLFFSFLPWSFRLFFSFFFYFGLFFFFEYDFVLFLVFCVLVIGPVWLLAGC”, 60200.
In the case of “SLWCLVIFPCSLVFLGLVGPVLSWFFLSFLFSWLIGRLVLYLILFLLFVTDWA” it was 22000.
For the sequence “GRRHCNYVQGWLWLSLFSYVCVTYVLSIYISMSFFFWNIAVFLFYFIFVGLLG”, the “transcriptional activation domain activity” value came to 40500.
Take “MNTNWNILPPVLFKWGPSLMVLSFNKPYFCSALPWYLYLCIFMCCLTHLYYFI”: the “transcriptional activation domain activity” value was 70600.
To “TFFLMRDIFIMEFLAHCDLLTIFVLAQTGEYARDLVKAFFSCNLRLLVVIFLG” belongs 47700; to “GVMIVRKRLLIAIATVYGSPDRGLRRIIQSIGKVLWRHGLLSDQFYSAGEIFS”, 69800.
Take “LGLDSGYLWSGILYNLSVTISLYSLGMFWVCMSKDLQPFRPVPKFLCIKLIIF”: the “transcriptional activation domain activity” value is 53200.
With “EEEGNSRRKRRHRDDRDSRERDERGRDRDRERRRHRRDSSRSRDASEEERGHK”, the “transcriptional activation domain activity” value worked out at 13400.
With “MCKKGKGVAIGPLSLSWFFNLSLVIFSLLSSLQSLWFLPWPLNFVLMVPVHFV”, the “transcriptional activation domain activity” value worked out at 79900.
Take “SPLNSFDRSFYPIGCTNLSNDIPGYSFLNDAMSEIHTFGDFNGELDSTFLEFS”: the “transcriptional activation domain activity” value came to 131000.
Consider “MPEETVTEPRKKRAKIMSACSECRRKKTKCNGEQPCRNCQKSSVQCVYPAATQ”, for which the “transcriptional activation domain activity” value was found to be 36500.
In the case of “AGALLDLYLRRNRCYVSNGYLGCSVLYLSTSLVVSCFLSWVTATILIILDIKR”, the “transcriptional activation domain activity” value turned out to be 83600.
To “RNLMVIVLVVGNLRLMIENLQKYGVLICLHCHDFRRSDILLGLGLYFLIPCHL” belongs 64000.
On to “VSPQIYYGSRLLGSGGLGLYFLRLPSLPCRTVVEILNTFLFFVMISYLQILLY”, for which the “transcriptional activation domain activity” value came out at 46400.
Regarding “RRAVRPADADEREAVARVRPRARRRLGDVRDELDPRRGRRRVHGRIWGGVVRL”, the “transcriptional activation domain activity” value is 68000.
With “RIMLQNAILPWFGKHDLRGKVFGCQIIELFHIFGMSFLNWIWSSGLVLATFPP”, the “transcriptional activation domain activity” value is 56600.
To “CLYVHQQLRESLGLGWLRQDTFFNYTRDRICVWNLNRKYSAFSTITSTVTHVR” belongs 39700.
For the sequence “LWFFFKGMDGMLHPPCSTWTFFFAKVNLYTWLRTFMKIVFVFMGLLHAIIIFW”, the “transcriptional activation domain activity” value came out at 60200.
Regarding “AKGAKKAKGAKKAKGAKKAAAGGAAAKAGAAAKAAKKAAKAKAAAAGGAAAAA”, the “transcriptional activation domain activity” value came out at 26000.
With “ASLHCLRSSPSSSSPCAARERSSSRARTSSSMCPIAPTHKPRSSTGSPARGTP”, the “transcriptional activation domain activity” value turned out to be 19900.
For the sequence “GLLYILFCYQMNLKTHSLKVIALAEESVRLVHDRQSKRLWLPSITWKKWFRTG”, the “transcriptional activation domain activity” value is 74800.
As to “KEVAAAEVAPADTAAAEAKPSKKEKKEKEKKPAEGPEGGKKKEKAAGGGGKAA”, the “transcriptional activation domain activity” value came out at 24500.
“FMHYYRRDRRHLKFLVLLVLFLSTCHFGLYVLTIFRVFVTMHSVVIPSHQVPW”: the “transcriptional activation domain activity” value came out at 63000.
Regarding “MVRRLINLFLCRPCLLTFLCYLWVFNIFSSASDLYFLFLLSLFGFVFVMGWGS”, the “transcriptional activation domain activity” value stood at 38900.
With “TGTEQKKGIGGRRRRSKQASKQGSRPVCGHACACVCLCVPCLSCVCVSVLHLL”, the “transcriptional activation domain activity” value is 67800.
Turning to “QGIEPLLPPKWGMLVGEARDLLVLFGALGEQERWNFWTTGCSYMTAMVLLTAN”, the “transcriptional activation domain activity” value stood at 53000.
As to “EGAAAPAPAAAEKKEEPKKAETPKAEAPKAEAPKETSSRADAAKPAAAPKAAA”, the “transcriptional activation domain activity” value is 39400.
In the case of “PFTIVFILPFDFSSTQYRICEHNCDAPLGYISSQFTRRLWVVLYWTMYLLTWL”, the “transcriptional activation domain activity” value stood at 67000.
On to “TTTLTGRPPSTFSGPETSNGPPTGSLPSKFVHDLMSNSPNVSSISMFPDWSMG”, for which the “transcriptional activation domain activity” value came out at 21600.
Consider “IWMILEIARSTLVFFRIYNFGHFVYNLVTKFDLMAIIPLLLVTLLPQIWFFCF”, for which the “transcriptional activation domain activity” value came to 33800.
For “RCWFILLYVMPNIAGTFGLRYVPLQNHVARLWCYYLTGPYNASFVLTLSLVIA”, the “transcriptional activation domain activity” value was 37400.
In the case of “ILFFCLVANSDKLHMIIFAVVPIRCVFPVFFLIFEVIINCWLPLVWHLLYNLT” it was 43800; in that of “MESRARISTSVILYLCARLRSIAVITYMIVVRSLSTFVYLAQRFFILLWPIIW”, 55600; in that of “KRSRKHSSREDVGEEGEDRRSEHRERKKEKEREKDKEKDKDRSRSRHKRSRSD”, 53600.
For “DVKKVYFASRFPGNWLRDYSQAMDIAGLSKLSSDTLVLVVAVLGFMTFGFATE”, the “transcriptional activation domain activity” value was 38900.
Regarding “FSAEIAILRWLKGNRQNDYIGALTSINRGLKLMYVHAYQSLVWNRAVSERWAR”, the “transcriptional activation domain activity” value was 57900.
As to “SPTLSHCTDYRTPALAYNILITCSLFLLFRPKPLILFWCLVCIGFWHVALFSQ”, the “transcriptional activation domain activity” value was found to be 52500.
